The values below come from patent publication US20220119534A1 (DRAGONFLY THERAPEUTICS, published 2022).

The target of test [1] is T1, mFc-hNKG2D (human, UniProt P26718 73-216).
T1 construct: extracellular domain; Made in house (Dragonfly Tx); the order of tag and ECD follows the name mFc-hNKG2D; also called mFc-tagged human NKG2D; not shown: mouse Fc tag
T1 sequence (looked up): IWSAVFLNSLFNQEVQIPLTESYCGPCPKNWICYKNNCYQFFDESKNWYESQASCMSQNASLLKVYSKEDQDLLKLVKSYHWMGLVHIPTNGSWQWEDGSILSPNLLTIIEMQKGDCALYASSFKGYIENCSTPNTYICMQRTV
Nature of the test: SPR Biacore 8K 37 C; mFc-hNKG2D captured on anti-mFc chip, TriNKET as analyte; steady state fit; after 4 wks 40 C in HST pH 6.0.

Test [2] has as its target T1, mFc-hNKG2D. Description: SPR Biacore 8K 37 C; mFc-hNKG2D captured on anti-mFc chip, TriNKET as analyte; 1:1 kinetic fit; after low pH hold, n=3.

B1: F3'-1602 TriNKET (bispecific antibody, human IgG1, kappa)
chain: QLQLQESGPGLVKPSETLSLTCTVSGFSLTNYGLHWIRQPPGKCLEWIGVIWSGGKTDYNPSLKSRVTISKDTSKNQFSLKLSSVQAADTAVYYCAKYDYDDSLDYWGQGTLVTVSSGGGGSGGGGSGGGGSGGGGSDIQMTQSPSSLSASVGDRVTITCHASQNINFWLSWYQQKPGKAPKLLIYEASNLHTGVPSRFSGSGSGTRFTLTISSLQPEDIATYYCQQSHSYPLTFGCGTKLEIKGSDKTHTCPPCPAPELLGGPSVFLFPPKPKDTLMISRTPEVTCVVVDVSHEDPEVKFNWYVDGVEVHNAKTKPREEQYNSTYRVVSVLTVLHQDWLNGKEYKCKVSNKALPAPIEKTISKAKGQPREPRVYTLPPCRDELTKNQVSLTCLVKGFYPSDIAVEWESNGQPENNYKTTPPVLVSDGSFTLYSKLTVDKSRWQQGNVFSCSVMHEALHNHYTQKSLSLSPG
heavy: EVQLVESGGGLVKPGGSLRLSCAASGFTFSSYSMNWVRQAPGKGLEWVSSISSSSSYIYYADSVKGRFTISRDNAKNSLYLQMNSLRAEDTAVYYCARGAPIGAAAGWFDPWGQGTLVTVSSASTKGPSVFPLAPSSKSTSGGTAALGCLVKDYFPEPVTVSWNSGALTSGVHTFPAVLQSSGLYSLSSVVTVPSSSLGTQTYICNVNHKPSNTKVDKKVEPKSCDKTHTCPPCPAPELLGGPSVFLFPPKPKDTLMISRTPEVTCVVVDVSHEDPEVKFNWYVDGVEVHNAKTKPREEQYNSTYRVVSVLTVLHQDWLNGKEYKCKVSNKALPAPIEKTISKAKGQPREPQVCTLPPSRDELTENQVSLTCLVKGFYPSDIAVEWESNGQPENNYKTTPPVLDSDGSFFLYSWLTVDKSRWQQGNVFSCSVMHEALHNHYTQKSLSLSPG
light: DIQMTQSPSSVSASVGDRVTITCRASQGISSWLAWYQQKPGKAPKLLIYAASSLQSGVPSRFSGSGSGTDFTLTISSLQPEDFATYYCQQGVSFPRTFGGGTKVEIKRTVAAPSVFIFPPSDEQLKSGTASVVCLLNNFYPREAKVQWKVDNALQSGNSQESVTEQDSKDSTYSLSSTLTLSKADYEKHKVYACEVTHQGLSSPVTKSFNRGEC
notes: Trispecific F3' format: CLEC12A scFv-Fc paired with NKG2D Fab-Fc; Stressed and control samples of the stability studies are the same molecule; also called AB0237
With B1, binding in the test with mFc-hNKG2D [1] was characterised by a dissociation constant (Kd) of 776 nM. Further, in the test with mFc-hNKG2D [2], the Kd is 671 nM, the dissociation rate constant (koff) was 0.139 s⁻¹ and the kon worked out at 207000 M⁻¹ s⁻¹.
